# From US20210292396A1
# B1: ePGT121.15 (ePGT121.15.H6 VH and ePGT121.15.L1 VL) (antibody, V domains shown)
# VH: QMQLQESGPGLVKPGETLSLTCSVSGASISSSYWSWLRETPGKGLEWIGYTHHSGDTNYAPSLKSRVHLGLHPSKNQVSLSLTSVTAADTAVYYCARTLHGRRIYGVVAFNEFFTYFYWEVWGKGTQVTVSS
# VL: SDISVAPGETVRISCGGESIGSRAVQWYQHRAGQAPKLIIYNNQDRPPGIPERFSGSPDIDFGTTATLTITNVEAGDEATYYCHIWDSRRPTNWVFGGGTTLTVL
# How the values were obtained:
# Test in all cases: cell-based or functional assay
# [1] = molecular target: Env of HIV isolate 398-F1.F6.20 (clade A) (HIV)
# [2] = molecular target: HIV Env of isolate P1981.C5.3 (HIV)
# [3] = molecular target: Env of HIV isolate T253-11 (clade AG) (HIV)
# [4] = molecular target: Env of HIV isolate MW965.26 (clade C) (HIV)
# [5] = molecular target: Env of HIV isolate 235-47 (clade AG) (HIV)
# [6] = molecular target: HIV Env of isolate X1632.S2.B10 (HIV)
# [7] = molecular target: HIV Env of isolate ZM55.28a (HIV)
# [8] = molecular target: Env of HIV isolate 3016.v5.c45 (clade D) (HIV)
# [9] = molecular target: HIV Env of isolate 3817.v2.c59 (HIV)
# [10] = molecular target: Env of HIV isolate ZM214.15 (clade C) (HIV)
# [11] = molecular target: Env of HIV isolate BJOX002000.03.2 (clade BC) (HIV)
# [12] = molecular target: Env of HIV isolate TZBD.02 (clade C) (HIV)
# [13] = molecular target: Env of HIV isolate BJOX028000.10.3 (clade AE) (HIV)
# [14] = molecular target: Env of HIV isolate T255-34 (clade AG) (HIV)
# [15] = molecular target: Env of HIV isolate NKU3006.ec1 (clade D) (HIV)
# [16] = molecular target: Env of HIV isolate BG505.W6M.C2 (clade A) (HIV)
# [17] = molecular target: Env of HIV isolate 25925-2.22 (clade C) (HIV)
# [18] = molecular target: HIV Env of isolate CNE19 (HIV)
# [19] = molecular target: Env of HIV isolate X1254.c3 (clade G) (HIV)
# [20] = molecular target: Env of HIV isolate ZM176.66 (clade C) (HIV)
# [21] = molecular target: Env of HIV isolate 6405.v4.c34 (clade D) (HIV)
# [22] = molecular target: Env of HIV isolate CNE57 (clade B) (HIV)
# [23] = molecular target: HIV Env of isolate 6838.v1.c35 (HIV)
# [24] = molecular target: Env of HIV isolate C1080.c3 (clade AE) (HIV)
# [25] = molecular target: Env of HIV isolate DU123.06 (clade C) (HIV)
# [26] = molecular target: Envelope of SVA.MLV
# [27] = molecular target: Env of HIV isolate 0439.v5.c1 (clade A) (HIV)
# [28] = molecular target: HIV Env of isolate DU172.17 (HIV)
# [29] = molecular target: HIV Env of isolate ZM214.15 (HIV)
# [30] = molecular target: Env of HIV isolate 271-11 (clade AG) (HIV)
# [31] = molecular target: HIV Env of isolate 6631.v3.c10 (HIV)
# [32] = molecular target: Env of HIV isolate 0921.v2.c14 (clade C) (HIV)
# [33] = molecular target: Env of HIV isolate CAP244.D3 (clade C) (HIV)
# [34] = molecular target: Env of HIV isolate 247-23 (clade D) (HIV)
# [35] = molecular target: Env of HIV isolate 3301.v1.c24 (clade AC) (HIV)
# [36] = molecular target: HIV Env of isolate CNE53 (HIV)
# [37] = molecular target: HIV Env of isolate 3873.v1.c24 (HIV)
# [38] = molecular target: HIV Env of isolate 25925-2.22 (HIV)
# [39] = molecular target: Env of HIV isolate PVO.04 (clade B) (HIV)
# [40] = molecular target: Env of HIV isolate QH209.14M.A2 (clade A) (HIV)
# [41] = molecular target: Env of HIV isolate JRCSF.JB (clade B) (HIV)
# [42] = molecular target: HIV Env of isolate X1193.c1 (HIV)
# [43] = molecular target: HIV Env of isolate P0402.c2.11 (HIV)
# [44] = molecular target: Env of HIV isolate TH966.8 (clade AE) (HIV)
# [45] = molecular target: Env of HIV isolate 3415.v1.c1 (clade A) (HIV)
# [46] = molecular target: Env of HIV isolate Ce1176.A3 (clade C) (HIV)
# [47] = molecular target: HIV Env of isolate CNE58 (HIV)
# [48] = molecular target: HIV Env of isolate 16055-2.3 (HIV)
# [49] = molecular target: Env of HIV isolate TH023.6 (clade AE) (HIV)
# [50] = molecular target: HIV Env of isolate ZM135.10a (HIV)
binder,measurement,setting,value
B1,"IC50, pseudovirus neutralization",[1],0.004 µg/mL
same,"IC80, pseudovirus neutralization",[2],0.005 µg/mL
same,"IC50, pseudovirus neutralization",[3],0.009 µg/mL
same,"IC50, pseudovirus neutralization",[4],0.004 µg/mL
same,"IC50, pseudovirus neutralization",[5],0.009 µg/mL
same,"IC80, pseudovirus neutralization",[6],> 50 µg/mL
same,"IC80, pseudovirus neutralization",[7],0.029 µg/mL
same,"IC50, pseudovirus neutralization",[8],> 50 µg/mL
same,"IC80, pseudovirus neutralization",[9],7.22 µg/mL
same,"IC50, pseudovirus neutralization",[10],0.028 µg/mL
same,"IC50, pseudovirus neutralization",[11],0.003 µg/mL
same,"IC50, pseudovirus neutralization",[12],0.003 µg/mL
same,"IC50, pseudovirus neutralization",[13],0.363 µg/mL
same,"IC50, pseudovirus neutralization",[14],0.045 µg/mL
same,"IC50, pseudovirus neutralization",[15],> 50 µg/mL
same,"IC50, pseudovirus neutralization",[16],0.066 µg/mL
same,"IC50, pseudovirus neutralization",[17],0.007 µg/mL
same,"IC80, pseudovirus neutralization",[18],0.03 µg/mL
same,"IC50, pseudovirus neutralization",[19],0.004 µg/mL
same,"IC50, pseudovirus neutralization",[20],0.073 µg/mL
same,"IC50, pseudovirus neutralization",[21],0.003 µg/mL
same,"IC50, pseudovirus neutralization",[22],0.004 µg/mL
same,"IC80, pseudovirus neutralization",[23],1.34 µg/mL
same,"IC50, pseudovirus neutralization",[24],> 50 µg/mL
same,"IC50, pseudovirus neutralization",[25],0.003 µg/mL
same,"IC80, pseudovirus neutralization",[26],> 50 µg/mL
same,"IC50, pseudovirus neutralization",[27],4.72 µg/mL
same,"IC80, pseudovirus neutralization",[28],0.007 µg/mL
same,"IC80, pseudovirus neutralization",[29],0.126 µg/mL
same,"IC50, pseudovirus neutralization",[30],> 50 µg/mL
same,"IC80, pseudovirus neutralization",[31],0.065 µg/mL
same,"IC50, pseudovirus neutralization",[32],0.454 µg/mL
same,"IC50, pseudovirus neutralization",[33],> 50 µg/mL
same,"IC50, pseudovirus neutralization",[34],> 50 µg/mL
same,"IC50, pseudovirus neutralization",[35],0.006 µg/mL
same,"IC80, pseudovirus neutralization",[36],0.015 µg/mL
same,"IC80, pseudovirus neutralization",[37],0.011 µg/mL
same,"IC80, pseudovirus neutralization",[38],0.013 µg/mL
same,"IC50, pseudovirus neutralization",[39],0.006 µg/mL
same,"IC50, pseudovirus neutralization",[40],> 50 µg/mL
same,"IC50, pseudovirus neutralization",[41],0.008 µg/mL
same,"IC80, pseudovirus neutralization",[42],0.007 µg/mL
same,"IC80, pseudovirus neutralization",[43],0.007 µg/mL
same,"IC50, pseudovirus neutralization",[44],> 50 µg/mL
same,"IC50, pseudovirus neutralization",[45],0.017 µg/mL
same,"IC50, pseudovirus neutralization",[46],0.003 µg/mL
same,"IC80, pseudovirus neutralization",[47],0.075 µg/mL
same,"IC80, pseudovirus neutralization",[48],0.211 µg/mL
same,"IC50, pseudovirus neutralization",[49],> 50 µg/mL
same,"IC80, pseudovirus neutralization",[50],0.508 µg/mL
